Several values for one entry are separate records, joined by “and”; a condition that tells them apart may be missing. Identical values can stand only once. Like-named read-outs stand apart in the source and are kept apart here.
How the values were obtained:
[1] = target: T1, Macaca fascicularis PD-1 (Swiss-Prot entry B0LAJ3), full length, on cells (Macaca fascicularis, UniProt Q15116 25-288 (human entry)); experiment: flow cytometry, Binding (%), on anti-CD3/anti-CD28 stimulated cynomolgus PBMCs; animal #1 or #3, same marker in the legend
T1 construct: Full length open reading frame transiently expressed on CHO-K1 cells; also endogenous PD-1 on CD3/CD28-stimulated cynomolgus PBMCs; No signal peptide limits are stated for the cynomolgus entry; also called cyno PD-1; cynomolgus PD-1
T1 chain: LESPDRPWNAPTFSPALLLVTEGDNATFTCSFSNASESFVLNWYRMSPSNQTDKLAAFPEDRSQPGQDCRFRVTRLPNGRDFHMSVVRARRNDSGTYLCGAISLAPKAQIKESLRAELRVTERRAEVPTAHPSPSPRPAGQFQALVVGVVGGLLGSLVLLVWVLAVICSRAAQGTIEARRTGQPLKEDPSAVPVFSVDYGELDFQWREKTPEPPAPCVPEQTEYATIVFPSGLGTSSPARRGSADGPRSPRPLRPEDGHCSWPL
Protocol: (§1) To this end Macacaca fascicularis (cynomolgus) blood was diluted 1:1 with PBS and added to 50 ml tubes containing 13 ml Lymphoprep 95%/PBS 5%. Cells were centrifuged for 30′ at 450 g and 20° C. without brake. Next, plasma was removed by aspiration and PBMCs were recovered from the plasma/Ficoll interface. PBMCs were washed twice times in PBS. Cells were frozen in liquid nitrogen and retrieved from the freezer on the day of the experiment. Since endogenous expression of PD-1 on resting T cells is low thus the thawed PBMCs were stimulated with αCD3/αCD28 coated beads (Gibco) for 48 hours.

[2] = target: T2, Human PD-1 (Swiss-Prot entry Q15116), full length, on cells (human, UniProt Q15116 21-288); experiment: CELISA on CHO-K1.hPDCD1 cells; blocking of biotinylated hPD-L1 Fc
T2 construct: Full length open reading frame of hPD-1 stably expressed on CHO-K1 cells; also endogenous PD-1 on CD3/CD28-stimulated human CD3+ T cells and PD-1 on transfected Jurkat cells; also called hPD-1; hPDCD1
Protocol: (§2) To further characterize these mutant hPD-1 antibodies they were tested for binding to hPD-1 in CELISA format using CHO-K1 cells (American Type Culture Collection, Manassas, Va.), stably transfected with cDNA encoding the full length open reading frame of hPDCD1 (hPD-1), subcloned into the pCI-neo vector (Promega). Parental CHO-K1 or CHO-K1.hPDCD1 cells were seeded in culture medium (DMEM-F12 (Gibco) with 10% Fetal Bovine Serum (Hyclone) and Pen/Strep (Gibco)) in tissue culture plates and incubated for 48 hours at 37° C. Subsequently culture medium was removed and cells were incubated for 1 hour at 37° C. with the mutant hPD-1 antibodies (10 μg/ml (=66 nM) and dilutions thereof). Next, cells were washed with Phosphate-Buffered Saline/0.05% Tween (PBST) and incubated for 1 hour at 37° C. with Goat-anti-human IgG-HRP (Southern Biotech). Subsequently, cells were washed 3 times with PBST and anti-hPD1 immunoreactivity was visualized with 100 al TMB Stabilized Chromagen (Invitrogen). Reactions were stopped with 100 al 0.5 M H2SO4 and absorbances were read at 450 and 610 nm. […] Blockade of hPD-L1 binding by the mutant hPD-1 antibodies was tested in CELISA format. Parental CHO-K1 or CHO-K1.hPDCD1 cells were seeded in tissue culture plates and incubated for 72 hours at 37° C. in culture medium. Subsequently culture medium was removed and cells were incubated for 1 hour with the mutant hPD-1 antibodies (10 μg/ml (=66 nM) and dilutions thereof) at 37° C. […] Cells were then washed three times with PBST followed by addition of Streptavidin-HRP conjugate on the cells, which was incubated for 1 hour at 37° C. […] Reactions were stopped with 100 al 0.5 M H2SO4 and absorbances were read at 450 and 610 nm. Calculated IC50 values in Table 12 for the blockade of hPD-L1 represent the concentration at which half of the inhibition is observed.

[3] = target: T1, Macaca fascicularis PD-1 (Swiss-Prot …); experiment: flow cytometry on CD3/CD28-stimulated cynomolgus PBMCs, three animals
Protocol: as §1

[4] = target: T2, Human PD-1 (Swiss-Prot entry Q15116), …; experiment: CELISA on CHO-K1.hPDCD1 cells; blocking of biotinylated hPD-L1 Fc; remark: listed apart in the source
Protocol: To further characterize these mutant hPD-1 antibodies they were tested for binding to hPD-1 in CELISA format using CHO-K1 cells (American Type Culture Collection, Manassas, Va.), stably transfected with cDNA encoding the full length open reading frame of hPDCD1 (hPD-1), subcloned into the pCI-neo vector (Promega). Parental CHO-K1 or CHO-K1.hPDCD1 cells were seeded in culture medium (DMEM-F12 (Gibco) with 10% Fetal Bovine Serum (Hyclone) and Pen/Strep (Gibco)) in tissue culture plates and incubated for 48 hours at 37° C. Subsequently culture medium was removed and cells were incubated for 1 hour at 37° C. with the mutant hPD-1 antibodies (10 μg/ml (=66 nM) and dilutions thereof). Next, cells were washed with Phosphate-Buffered Saline/0.05% Tween (PBST) and incubated for 1 hour at 37° C. with Goat-anti-human IgG-HRP (Southern Biotech). Subsequently, cells were washed 3 times with PBST and anti-hPD1 immunoreactivity was visualized with 100 al TMB Stabilized Chromagen (Invitrogen). Reactions were stopped with 100 al 0.5 M H2SO4 and absorbances were read at 450 and 610 nm. […] Blockade of hPD-L1 binding by the mutant hPD-1 antibodies was tested in CELISA format. […] Reactions were stopped with 100 al 0.5 M H2SO4 and absorbances were read at 450 and 610 nm. Calculated IC50 values in Table 12 for the blockade of hPD-L1 represent the concentration at which half of the inhibition is observed.

[5] = target: T1, Macaca fascicularis PD-1 (Swiss-Prot …); experiment: flow cytometry, Binding (%), on anti-CD3/anti-CD28 stimulated cynomolgus PBMCs, animal #2
Protocol: as §1

[6] = target: T2, Human PD-1 (Swiss-Prot entry Q15116), …; experiment: cell-based or functional assay
[7] = target: T2, Human PD-1 (Swiss-Prot entry Q15116), …; experiment: CELISA on CHO-K1.hPDCD1 cells
Protocol: as §2

[8] = target: T2, Human PD-1 (Swiss-Prot entry Q15116), …; experiment: flow cytometry, Binding (%), on anti-CD3/anti-CD28 stimulated human CD3+ T cells; donor #1 or #3, same marker in the legend
Protocol: Cells were stored in liquid nitrogen and retrieved from the freezer on the day of the experiment. Since endogenous expression of hPD-1 on resting T cells is low, the thawed CD3+ T cells were stimulated with αCD3/αCD28 coated beads (Gibco) for 48 hours.

T2 sequence (Q15116 21-288, one chain of several): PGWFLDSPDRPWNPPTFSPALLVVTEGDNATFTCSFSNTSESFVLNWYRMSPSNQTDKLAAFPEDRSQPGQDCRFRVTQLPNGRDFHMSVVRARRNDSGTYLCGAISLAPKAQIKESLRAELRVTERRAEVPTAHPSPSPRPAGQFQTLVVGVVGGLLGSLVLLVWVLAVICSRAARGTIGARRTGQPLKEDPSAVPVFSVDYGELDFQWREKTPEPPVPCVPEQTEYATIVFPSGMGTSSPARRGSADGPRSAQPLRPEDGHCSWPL

EC50 (read off the curve) [1]: ~1 nM and ~2 nM
IC50 [2]: 1.3 nM
EC50 [3]: 1.6 nM
IC50 [4]: 0.7 nM
EC50 (read off the curve) [5]: ~2 nM
IC50; NFAT-luciferase signal (RLU) of Jurkat cells expressing human PD-1, with CHO cells expressing hPD-L1 [6]: 4.39 nM
EC50 [7]: 0.3 nM
EC50 (read off the curve) [8]: ~0.2 nM and ~0.3 nM
B1: hPD1.29H5L4 (antibody, V domains shown)
VH: EVQLVQSGAEVKKPGASVKVSCKASGYIFTTYYIHWVKQAPGKGLEWIGWIFPGDVSTQYNEKFQDKATITVDKSASTAYMQLSSLRSEDTAVYYCTREAYDYAVYWGQGTLVTVSS
VL: DIQMTQAPSSLSASVGDRVTITCKASQNVDTNVAWFQQKPGKAPKSLIFSASYRYSGVPSRFSGSGSGTDFTLTISSLQPEDFATYYCQQYNNYPFTFGGGTKLEIK
notes: Expressed as human IgG4, kappa with the stabilizing S241P (Kabat) hinge mutation in HEK293 cells; also called humanized PD-1 antibody hPD1.29H5L4

Source: patent US20180030137A1 (ADURO BIOTECH HOLDINGS EUROPE B V, published 2018)
